Target: T1, insulin (UniProt P01308 25-54; P01308 90-110, limits assumed)
T1 construct: Mature insulin has two chains (A and B) from one precursor; also called b-insulin
Test: SPR, Biacore T200; target immobilized on CM5, His6-tagged Y variant injected; 1:1 Langmuir
Description: Kinetic constants (kₐ and kd) and affinities (KD) were determined for Hiss-tagged Y variants using a Biacore T200 instrument (GE Healthcare). Target proteins C4, IL-6 and insulin, respectively, were immobilized in separate flow cells on the carboxylated dextran layer of different CM5 chip surfaces (GE Healthcare).
Immobilization was performed using amine coupling chemistry according to the manufacturer's protocol and PBS pH 7.4 supplemented with 0.1 Tween20 (PBST 0.1%) as running buffer. The ligand immobilization levels on the surfaces were 3280-8830 RU for C4, 495-1184 RU for IL-6, and 270-282 RU for insulin. One flow cell surface on each chip was activated and deactivated for use as blank during analyte injections. In the kinetic experiment, PBST 0.1% was used as running buffer at a flow rate of 30 μl/min. The analytes, i.e. Y variants, were each diluted in PBST 0.1 buffer at concentrations of 1000, 500, 100, 50 and 10 nM and injected for 5 min, followed by dissociation in running buffer for 3 min. After dissociation, the surfaces were regenerated with one injection of 30 μl 10 mM HCl. Kinetic constants were calculated from the sensorgrams using the Langmuir 1:1 model of Biacore T200 Evaluation software 2.0 (GE Healthcare).

T1 sequence (P01308 25-54 limits assumed, form in doubt, chain 1 of 2): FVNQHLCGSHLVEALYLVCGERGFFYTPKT
T1 sequence (P01308 90-110 limits assumed, form in doubt, chain 2 of 2): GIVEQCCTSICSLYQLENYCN

Kd [nM] | koff [s⁻¹] | kon [M⁻¹ s⁻¹] | Binder
6.5 | 0.002 | 310000 | Y00299 (designed binder, From library Ylib002Naive.I) MGSSHHHHHHGSSLAEAKEAAIAELDSKGVGAYQIKFIQVAKTVEQVQILKQAILADLPA
10 | 0.0023 | 220000 | Y00358 (designed binder, From library Ylib002Naive.I) MGSSHHHHHHGSSLAEAKEAAIAELDSKGVGAAKIKWIQDAKSVETVQFLKQAILAELPA
14 | 0.0027 | 190000 | Y02710 (designed binder, Y00358 with K15Y) MGSSHHHHHHGSSLAEAKEAAIAELDSYGVGAAKIKWIQDAKSVETVQFLKQAILAELPA
21 | 0.0011 | 85000 | Y00304 (designed binder, From library Ylib002Naive.I) MGSSHHHHHHGSSLAEAKEAAIAELDSKGVGAYQIKFIQVAHDVEEVQILKQAILADLPA
37 | 0.0063 | 170000 | Y00310 (designed binder, From library Ylib002Naive.I) MGSSHHHHHHGSSLAEAKEAAIAELDSKGVGAYQIKFIQIAHTVEEVQLMKQAILADLPA
54 | 0.008 | 150000 | Y02711 (designed binder, Y00358 with Q26E) MGSSHHHHHHGSSLAEAKEAAIAELDSKGVGAAKIKWIEDAKSVETVQFLKQAILAELPA
380 | 0.01 | 27000 | Y02709 (designed binder, Y00358 with I9L) MGSSHHHHHHGSSLAEAKEAALAELDSKGVGAAKIKWIQDAKSVETVQFLKQAILAELPA
61 | 0.017 | 290000 | Y00345 (designed binder, From library Ylib002Naive.I) MGSSHHHHHHGSSLAEAKEAAIAELDSKGVGAYQIKFIQVAKTVEAVQAIKQAILADLPA
610 | 0.02 | 33000 | Y02717 (designed binder, Y00310 with K15Y + Q26E) MGSSHHHHHHGSSLAEAKEAAIAELDSYGVGAYQIKFIEIAHTVEEVQLMKQAILADLPA
280 | 0.0019 | 6700 | Y02715 (designed binder, Y00358 with K15Y + Q26E) MGSSHHHHHHGSSLAEAKEAAIAELDSYGVGAAKIKWIEDAKSVETVQFLKQAILAELPA
540 | 0.16 | 290000 | Y02714 (designed binder, Y00310 with Q26E) MGSSHHHHHHGSSLAEAKEAAIAELDSKGVGAYQIKFIEIAHTVEEVQLMKQAILADLPA
190 | 0.014 | 110000 | Y02713 (designed binder, Y00310 with K15Y) MGSSHHHHHHGSSLAEAKEAAIAELDSYGVGAYQIKFIQIAHTVEEVQLMKQAILADLPA
7.6 | 0.21 | 2.7e+07 | Y02716 (designed binder, Y00301 with K15Y + Q26E) MGSSHHHHHHGSSLAEAKEAAIAELDSYGVGARQIKWIEQAKSVEVVQWLKQAILADLPA
120 | 0.0037 | 30000 | Y00330 (designed binder, From library Ylib002Naive.I) MGSSHHHHHHGSSLAEAKEAAIAELDSKGVGAKYIKMIQMAKHVETVQYMKQAILASLPA
0.17 | 0.0061 | 3.4e+07 | Y00356a (designed binder, From library Ylib002Naive.I; if it is only 46 residues long, an A must be added at the C-terminus) MGSSHHHHHHGSSLAEAKEAAIAELDSKGVGAKYIKMIQHAHYVEVVQWLKQAILAHLPA
310 | 0.0036 | 12000 | Y00361 (designed binder, From library Ylib002Naive.I) MGSSHHHHHHGSSLAEAKEAAIAELDSKGVGAKFIKMIQSAKLVETVQLLKQAILADLPA
